Biological target: Bombyx mori lipoprotein 3 (Bombyx mori) (UniProt Q00802)
Assay: crystal structure; crystal form Bmlp3-c2, space group C2, two molecules in the asymmetric unit; grown in 2.0 M ammonium sulfate, 0.1 M ammonium iodide, pH 5.5, 20°C; an iodide anion lies in the centre of the dimer interface

stoichiometry N: 2
Substance: Bombyx mori lipoprotein 3 (from UniProt Q00802 18-256) (natural protein)
